Measured values as given in patent publication US20220048967A1 (published 2022).
Numbered stars: 1 amine (or outer) side, 2 acyl side, 3 side chain; on linkers, the order of the positions; unused ones are H or OH. Square brackets hold non-standard residues; d marks the D form. Side chains are listed from the residue outwards. Ends that are not written are not given here. * marks the point of attachment. C20 diacid = O=C(O)CCCCCCCCCCCCCCCCCCC(=O)*; γGlu = O=C(O)[C@H](CCC(=O)[*:2])N[*:1]; αMeL = CC(C)C[C@](C)(N)C(=O)O; Dab = NCC[C@H](N)C(=O)O; Dap = NC[C@H](N)C(=O)O; AEEA = NCCOCCOCC(=O)O; Aib = CC(C)(N)C(=O)O

B1: Example 330 (peptide)
peptide: Y[Aib]EGTFTSDYSILLDEK([AEEA-AEEA-γGlu-C20 diacid])AQ[Aib]AFIEYLIAGGPSSGAPPPS-NH2
modifications: N-terminus assumed
SMILES: CC[C@H](C)[C@H](NC(=O)[C@H](CC(C)C)NC(=O)[C@H](Cc1ccc(O)cc1)NC(=O)[C@H](CCC(=O)O)NC(=O)[C@@H](NC(=O)[C@H](Cc1ccccc1)NC(=O)[C@H](C)NC(=O)C(C)(C)NC(=O)[C@H](CCC(N)=O)NC(=O)[C@H](C)NC(=O)[C@H](CCCCNC(=O)COCCOCCNC(=O)COCCOCCNC(=O)CC[C@H](NC(=O)CCCCCCCCCCCCCCCCCCC(=O)O)C(=O)O)NC(=O)[C@H](CCC(=O)O)NC(=O)[C@H](CC(=O)O)NC(=O)[C@H](CC(C)C)NC(=O)[C@H](CC(C)C)NC(=O)[C@@H](NC(=O)[C@H](CO)NC(=O)[C@H](Cc1ccc(O)cc1)NC(=O)[C@H](CC(=O)O)NC(=O)[C@H](CO)NC(=O)[C@@H](NC(=O)[C@H](Cc1ccccc1)NC(=O)[C@@H](NC(=O)CNC(=O)[C@H](CCC(=O)O)NC(=O)C(C)(C)NC(=O)[C@@H](N)Cc1ccc(O)cc1)[C@@H](C)O)[C@@H](C)O)[C@@H](C)CC)[C@@H](C)CC)C(=O)N[C@@H](C)C(=O)NCC(=O)NCC(=O)N1CCC[C@H]1C(=O)N[C@@H](CO)C(=O)N[C@@H](CO)C(=O)NCC(=O)N[C@@H](C)C(=O)N1CCC[C@H]1C(=O)N1CCC[C@H]1C(=O)N1CCC[C@H]1C(=O)N[C@@H](CO)C(N)=O
B2: Example 331 (peptide)
peptide: YXEGTFTSDYSIXLDEKAQXEFIEYLIAGGPSSGAPPPS
modifications: Aib2, αMeL13, K17 conjugated to (2-[2-(2-Amino-ethoxy)-ethoxy]-acetyl)2-(γ-Glu)-CO-(CH2)18-CO2H, Aib20, C-terminal amide (NH2)
B3: Example 332 (peptide)
peptide: YXEGTFTSDYSIXLDEKAQXAFIEYLIAGGPSSGAPPPS
modifications: Aib2, αMeL13, K17 conjugated to (2-[2-(2-Amino-ethoxy)-ethoxy]-acetyl)2-(γ-Glu)-CO-(CH2)18-CO2H, Aib20, C-terminal amide (NH2)
B4: Example 333 (peptide)
peptide: YXEGTFTSDYSIXLDKKAQXEFIEYLIEGGPSSGAPPPS
modifications: Aib2, αMeL13, K17 conjugated to (2-[2-(2-Amino-ethoxy)-ethoxy]-acetyl)2-(γ-Glu)-CO-(CH2)18-CO2H, Aib20, C-terminal amide (NH2)
B5: Example 334 (peptide)
peptide: XXEGTFTSDYSIXLDKKAQXAFIEYLIEGGPSSGAPPPS
modifications: not fully specified; D-Tyr1, Aib2, αMeL13, K17 conjugated to (2-[2-(2-Amino-ethoxy)-ethoxy]-acetyl)2-(γ-Glu)-CO-(CH2)18-CO2H, Aib20, C-terminal amide (NH2)
B6: Example 335 (peptide)
peptide: XXEGTXTSDYSIXLDKKAQXAFIEYLIEGGPSSGAPPPS
modifications: not fully specified; D-Tyr1, Aib2, αMeF6, αMeL13, K17 conjugated to (2-[2-(2-Amino-ethoxy)-ethoxy]-acetyl)2-(γ-Glu)-CO-(CH2)18-CO2H, Aib20, C-terminal amide (NH2)
B7: Example 336 (peptide)
peptide: XXEGTXTSDYSIXLDKKAQXAFIEYLIEGGPSSGAPPPS
modifications: not fully specified; D-Tyr1, Aib2, αMeF(2F)6, αMeL13, K17 conjugated to (2-[2-(2-Amino-ethoxy)-ethoxy]-acetyl)2-(γ-Glu)-CO-(CH2)18-CO2H, Aib20, C-terminal amide (NH2)
B8: Example 290 (peptide)
peptide: XXEGTFTSDYSIXLDKKAQXEFIEYLIAGGPSSGAPPPS
modifications: D-Tyr1, Aib2, αMeL13, K17 conjugated to (2-[2-(2-Amino-ethoxy)-ethoxy]-acetyl)2-(γ-Glu)-CO-(CH2)18-CO2H, Aib20, C-terminal amide (NH2)
B9: Example 337 (peptide)
peptide: FXEGTFTSDYSIXLDKKAQXAFIEYLIAGGPSSGAPPPS
modifications: not fully specified; Aib2, αMeL13, K17 conjugated to (2-[2-(2-Amino-ethoxy)-ethoxy]-acetyl)2-(γ-Glu)-CO-(CH2)18-CO2H, Aib20, C-terminal amide (NH2)
B10: Example 339 (peptide)
peptide: YXEGTFTSDYSIXLDKKAQXEFIEYLIAGGPSSGAPPPS
modifications: not fully specified; Aib2, αMeL13, K17 conjugated to (2-[2-(2-Amino-ethoxy)-ethoxy]-acetyl)-(γ-Glu)-CO-(CH2)18-CO2H, Aib20, C-terminal amide (NH2)
B11: Example 340 (peptide)
peptide: XXEGTFTSDYSIXLDKKAQXAFIEYLIAGGPSSGAPPPS
modifications: not fully specified; D-Tyr1, Aib2, αMeL13, K17 conjugated to (2-[2-(2-Amino-ethoxy)-ethoxy]-acetyl)2-(γ-Glu)-CO-(CH2)18-CO2H, Aib20, C-terminal amide (NH2)
B12: Example 341 (peptide)
peptide: XXEGTFTSDYSIXLDEKAQXAFIEYLIAGGPSSGAPPPS
modifications: not fully specified; D-Tyr1, Aib2, αMeL13, K17 conjugated to (2-[2-(2-Amino-ethoxy)-ethoxy]-acetyl)2-(γ-Glu)-CO-(CH2)18-CO2H, Aib20, C-terminal amide (NH2)
B13: Example 342 (peptide)
peptide: XXEGTFTSDYSIXLDEKAQXEFIEYLIAGGPSSGAPPPS
modifications: not fully specified; D-Tyr1, Aib2, αMeL13, K17 conjugated to (2-[2-(2-Amino-ethoxy)-ethoxy]-acetyl)2-(γ-Glu)-CO-(CH2)18-CO2H, Aib20, C-terminal amide (NH2)
B14: Example 343 (peptide)
peptide: YXEGTFTSDYSIXLDEKAQXAFIXYLIAGGPSSGAPPPS
modifications: not fully specified; Aib2, αMeL13, K17 conjugated to (2-[2-(2-Amino-ethoxy)-ethoxy]-acetyl)2-(γ-Glu)-CO-(CH2)18-CO2H, Aib20, D-Glu24, C-terminal amide (NH2)
B15: Example 344 (peptide)
peptide: YXEGTFTSDYSIXLDEKAQXDFIEYLIAGGPSSGAPPPS
modifications: not fully specified; Aib2, αMeL13, K17 conjugated to (2-[2-(2-Amino-ethoxy)-ethoxy]-acetyl)2-(γ-Glu)-CO-(CH2)18-CO2H, Aib20, C-terminal amide (NH2)
B16: Example 345 (peptide)
peptide: XXEGTXTSDYSIXLDKKAQXEFIEYLIAGGPSSGAPPPS
modifications: D-Tyr1, Aib2, αMeF6, αMeL13, K17 conjugated to (2-[2-(2-Amino-ethoxy)-ethoxy]-acetyl)2-(γ-Glu)-CO-(CH2)18-CO2H, Aib20, C-terminal amide (NH2)
B17: Example 346 (peptide)
peptide: XXEGTFTSDYSIXLDXKAQXAFIEYLIAGGPSSGAPPPS
modifications: D-Tyr1, Aib2, αMeL13, Orn16, K17 conjugated to (2-[2-(2-Amino-ethoxy)-ethoxy]-acetyl)2-(γ-Glu)-CO-(CH2)18-CO2H, Aib20, C-terminal amide (NH2)
B18: Example 347 (peptide)
peptide: [dY][Aib]EGTFTSDYSI[αMeL]LD[Dab]K([AEEA-AEEA-γGlu-C20 diacid])AQ[Aib]AFIEYLIAGGPSSGAPPPS-NH2
modifications: N-terminus assumed
SMILES: CC[C@H](C)[C@H](NC(=O)[C@H](CC(C)C)NC(=O)[C@H](Cc1ccc(O)cc1)NC(=O)[C@H](CCC(=O)O)NC(=O)[C@@H](NC(=O)[C@H](Cc1ccccc1)NC(=O)[C@H](C)NC(=O)C(C)(C)NC(=O)[C@H](CCC(N)=O)NC(=O)[C@H](C)NC(=O)[C@H](CCCCNC(=O)COCCOCCNC(=O)COCCOCCNC(=O)CC[C@H](NC(=O)CCCCCCCCCCCCCCCCCCC(=O)O)C(=O)O)NC(=O)[C@H](CCN)NC(=O)[C@H](CC(=O)O)NC(=O)[C@H](CC(C)C)NC(=O)[C@](C)(CC(C)C)NC(=O)[C@@H](NC(=O)[C@H](CO)NC(=O)[C@H](Cc1ccc(O)cc1)NC(=O)[C@H](CC(=O)O)NC(=O)[C@H](CO)NC(=O)[C@@H](NC(=O)[C@H](Cc1ccccc1)NC(=O)[C@@H](NC(=O)CNC(=O)[C@H](CCC(=O)O)NC(=O)C(C)(C)NC(=O)[C@H](N)Cc1ccc(O)cc1)[C@@H](C)O)[C@@H](C)O)[C@@H](C)CC)[C@@H](C)CC)C(=O)N[C@@H](C)C(=O)NCC(=O)NCC(=O)N1CCC[C@H]1C(=O)N[C@@H](CO)C(=O)N[C@@H](CO)C(=O)NCC(=O)N[C@@H](C)C(=O)N1CCC[C@H]1C(=O)N1CCC[C@H]1C(=O)N1CCC[C@H]1C(=O)N[C@@H](CO)C(N)=O
B19: Example 348 (peptide)
peptide: [dY][Aib]EGTFTSDYSI[αMeL]LD[Dap]K([AEEA-AEEA-γGlu-C20 diacid])AQ[Aib]AFIEYLIAGGPSSGAPPPS-NH2
modifications: N-terminus assumed
SMILES: CC[C@H](C)[C@H](NC(=O)[C@H](CC(C)C)NC(=O)[C@H](Cc1ccc(O)cc1)NC(=O)[C@H](CCC(=O)O)NC(=O)[C@@H](NC(=O)[C@H](Cc1ccccc1)NC(=O)[C@H](C)NC(=O)C(C)(C)NC(=O)[C@H](CCC(N)=O)NC(=O)[C@H](C)NC(=O)[C@H](CCCCNC(=O)COCCOCCNC(=O)COCCOCCNC(=O)CC[C@H](NC(=O)CCCCCCCCCCCCCCCCCCC(=O)O)C(=O)O)NC(=O)[C@H](CN)NC(=O)[C@H](CC(=O)O)NC(=O)[C@H](CC(C)C)NC(=O)[C@](C)(CC(C)C)NC(=O)[C@@H](NC(=O)[C@H](CO)NC(=O)[C@H](Cc1ccc(O)cc1)NC(=O)[C@H](CC(=O)O)NC(=O)[C@H](CO)NC(=O)[C@@H](NC(=O)[C@H](Cc1ccccc1)NC(=O)[C@@H](NC(=O)CNC(=O)[C@H](CCC(=O)O)NC(=O)C(C)(C)NC(=O)[C@H](N)Cc1ccc(O)cc1)[C@@H](C)O)[C@@H](C)O)[C@@H](C)CC)[C@@H](C)CC)C(=O)N[C@@H](C)C(=O)NCC(=O)NCC(=O)N1CCC[C@H]1C(=O)N[C@@H](CO)C(=O)N[C@@H](CO)C(=O)NCC(=O)N[C@@H](C)C(=O)N1CCC[C@H]1C(=O)N1CCC[C@H]1C(=O)N1CCC[C@H]1C(=O)N[C@@H](CO)C(N)=O
B20: Example 349 (peptide)
peptide: XXEGTFTSDYSIXLDXKAQXEFIEYLIAGGPSSGAPPPS
modifications: D-Tyr1, Aib2, αMeL13, Orn16, K17 conjugated to (2-[2-(2-Amino-ethoxy)-ethoxy]-acetyl)2-(γ-Glu)-CO-(CH2)18-CO2H, Aib20, C-terminal amide (NH2)

Columns and labels:
human GLP-1 receptor = human GLP-1 receptor (human, UniProt P43220 24-463); experiment: cell-based or functional assay
[1] = biological target: Pro-Link-tagged Human GLP-1R (human, UniProt P43220 24-463); experiment: cell-based or functional assay

Binder | hGLP1R GTPgS % Top (human GLP-1 receptor) [%] | hGLP1R GTPgS Rel EC50 (human GLP-1 receptor) [nM] | hGLP1R B-Arrestin2 Rel EC50 [1] [nM] | hGLP1R B-Arrestin2 % Top [1] [%]
B1 | 47.8 | 1.05 | > 10900 | –
B2 | 80.9 | 0.375 | 12.8 | 44.3
B3 | 81.5 | 0.453 | 17.1 | 45.6
B4 | 83.4 | 0.442 | 54.8 | 58.2
B5 | 70.2 | 0.432 | > 10300 | –
B6 | 89.3 | 0.285 | 5.31 | 73
B7 | 90.2 | 0.377 | 7.78 | 82.5
B8 | 66.2 | 0.466 | 23.8 | 20
B9 | 59.5 | 0.322 | 17.4 | 34.1
B10 | 74.1 | 0.326 | 10.7 | 44
B11 | 67.4 | 0.45 | 10.7 | 20.1
B12 | 78.9 | 0.496 | 18.8 | 21.9
B13 | 77.2 | 0.414 | 35 | 20.7
B14 | 74.9 | 0.522 | 45.5 | 41.4
B15 | 85.8 | 0.423 | 34.3 | 46
B16 | 62 | 0.684 | 3.08 | 74.7
B17 | 56.6 | 0.737 | 3.25 | 19.3
B18 | 46.9 | 0.759 | 5.42 | 24.6
B19 | 47.7 | 0.66 | 3.46 | 19.8
B20 | 64.5 | 0.464 | 15.1 | 18.4
